Columns and labels:
Assay in all cases: FRET or BRET
[1] = target: Monocysteine-reactive type A CCK receptor construct N102C, derivatized with Alexa^546 at position 102 (UniProt P30551)
[2] = target: Monocysteine-reactive type A CCK receptor construct T341C, derivatized with Alexa^546 at position 341 (UniProt P30551)
[3] = target: Monocysteine-reactive type A CCK receptor construct C94, derivatized with Alexa^546 at position 94 (UniProt P30551)
[4] = target: Monocysteine-reactive type A CCK receptor construct A204C, derivatized with Alexa^546 at position 204 (UniProt P30551)

efficiency of energy transfer [1]	efficiency of energy transfer [2]	efficiency of energy transfer [3]	efficiency of energy transfer [4]	Substance
70%	66%	58%	53%	Aladan^33-CCK (peptide)
66%	67%	55%	54%	Aladan^29-CCK (peptide)
64%	64%	56%	53%	Aladan^24-CCK (peptide)

— article PMC3648886
